The data set is described as follows: total protein half-life in vivo (active degradation + dilution); higher = more stable protein.
[1] abbreviates: E. coli NCM3722 delta-clpP delta-lon delta-hslV, growth: N-lim chemostat, doubling time 6 h.
[2] abbreviates: E. coli NCM3722 delta-clpP, growth: N-lim chemostat, doubling time 6 h.
[3] abbreviates: E. coli NCM3722 delta-lon, growth: N-lim chemostat, doubling time 6 h.
Where [4] appears, read: E. coli NCM3722 delta-smpB, growth: N-lim chemostat, doubling time 6 h.
Setting [5] is: wild type E. coli NCM3722, growth: C-lim chemostat, doubling time 3 h.
Setting [6] is: wild type E. coli NCM3722, growth: C-lim chemostat, doubling time 6 h.
Where [7] appears, read: wild type E. coli NCM3722, growth: C-lim chemostat, doubling time 12 h.
Where [8] appears, read: wild type E. coli NCM3722, growth: N-lim chemostat, doubling time 6 h.
Where [9] appears, read: wild type E. coli NCM3722, growth: N-lim chemostat, doubling time 12 h.
Setting [10] is: wild type E. coli NCM3722, growth: P-lim chemostat, doubling time 6 h.
Setting [11] is: wild type E. coli NCM3722, growth: P-lim chemostat, doubling time 12 h.
[12] abbreviates: E. coli NCM3722 delta-hslV, growth: N-lim chemostat, doubling time 6 h.

± gives the standard deviation of the averaged measurements.

For “MIRQRRRALTPEQQQEMGQQAATRMMTYPPVVMAHTVAVFLSFDGELDTQPLIEQLWRAGKRVYLPVLHPFSAGNLLFLNYHPQSELVMNRLKIHEPKLDVRDVLPLSRLDVLITPLVAFDEYGQRLGMGGGFYDRTLQNWQHYKTQPVGYAHDCQLVEKLPVEEWDIPLPAVVTPSKVWEW [P0AC28]”, the “total protein half-life in vivo” value is, setting by setting: under setting [1], 4.93 ± 0.7 h; under setting [2], 3.88 ± 0.18 h; under setting [3], 2.6 ± 0.54 h; under setting [4], 2.58 h; under setting [5], 2.75 ± 0.068 h; under setting [6], 4.81 ± 0.41 h. Moreover, the “total protein half-life in vivo” value by setting is: under setting [7], 7.66 ± 1.6 h; under setting [8], 2.59 h; under setting [9], 4.35 h; under setting [10], 3.85 ± 0.24 h; under setting [11], 7.8 ± 0.34 h.
Consider “MSFSEFYQRSINEPEQFWAEQARRIDWQTPFTQTLDHSNPPFARWFCEGRTNLCHNAIDRWLEKQPEALALIAVSSETEEERTFTFRQLHDEVNAVASMLRSLGVQRGDRVLVYMPMIAEAHITLLACARIGAIHSVVFGGFASHSVAARIDDAKPVLIVSADAGARGGKIIPYKKLLDDAISQAQHQPRHVLLVDRGLAKMARVSGRDVDFASLRHQHIGARVPVAWLESNETSCILYTSGTTGKPKGVQRDVGGYAVALATSMDTIFGGKAGSVFFCASDIGWVVGHSYIVYAPLLAGMATIVYEGLPTWPDCGVWWTIVEKYQVSRMFSAPTAIRVLKKFPTAEIRKHDLSSLEVLYLAGEPLDEPTASWVSNTLDVPVIDNYWQTESGWPIMAIARGLDDRPTRLGSPGVPMYGYNVQLLNEVTGEPCGVNEKGMLVVEGPLPPGCIQTIWGDDGRFVKTYWSLFSRPVYATFDWGIRDADGYHFILGRTDDVINVAGHRLGTREIEESISSHPGVAEVAVVGVKDALKGQVAVAFVIPKESDSLEDRDVAHSQEKAIMALVDSQIGNFGRPAHVWFVSQLPKTRSGKMLRRTIQAICEGRDPGDLTTIDDPASLDQIRQAMEE”, for which the “total protein half-life in vivo” value is, setting by setting: under setting [6], 0.366 ± 0.12 h; under setting [7], 0.611 h.
For “MALWGGRFTQAADQRFKQFNDSLRFDYRLAEQDIVGSVAWSKALVTVGVLTAEEQAQLEEALNVLLEDVRARPQQILESDAEDIHSWVEGKLIDKVGQLGKKLHTGRSRNDQVATDLKLWCKDTVSELLTANRQLQSALVETAQNNQDAVMPGYTHLQRAQPVTFAHWCLAYVEMLARDESRLQDALKRLDVSPLGCGALAGTAYEIDREQLAGWLGFASATRNSLDSVSDRDHVLELLSAAAIGMVHLSRFAEDLIFFNTGEAGFVELSDRVTSGSSLMPQKKNPDALELIRGKCGRVQGALTGMMMTLKGLPLAYNKDMQEDKEGLFDALDTWLDCLHMAALVLDGIQVKRPRCQEAAQQGYANATELADYLVAKGVPFREAHHIVGEAVVEAIRQGKPLEDLPLSELQKFSQVIDEDVYPILSLQSCLDKRAAKGGVSPQQVAQAIAFAQARLG”, the “total protein half-life in vivo” value under setting [1] worked out at 4.96 ± 1 h; the “total protein half-life in vivo” value under setting [2] worked out at 4 ± 0.055 h; the “total protein half-life in vivo” value under setting [12] came out at 3.462 ± 0.011 h; the “total protein half-life in vivo” value under setting [3] came to 4.05 ± 0.2 h; the “total protein half-life in vivo” value under setting [4] came to 3.65 ± 0.28 h; the “total protein half-life in vivo” value under setting [5] is 3.02 ± 0.055 h. The “total protein half-life in vivo” value runs as follows: under setting [6], 5.59 ± 0.33 h; under setting [7], 10.5 ± 0.22 h; under setting [8], 3.77 ± 0.17 h; under setting [9], 5.76 ± 0.05 h; under setting [10], 5.29 ± 0.76 h; under setting [11], 11 ± 0.68 h.
Consider “MDTSLAEEVQQTMATLAPNRFFFMSPYRSFTTSGCFARFDEPAVNGDSPDSPFQQKLAALFADAKAQGIKNPVMVGAIPFDPRQPSSLYIPESWQSFSRQEKQASARRFTRSQSLNVVERQAIPEQTTFEQMVARAAALTATPQVDKVVLSRLIDITTDAAIDSGVLLERLIAQNPVSYNFHVPLADGGVLLGASPELLLRKDGERFSSIPLAGSARRQPDEVLDREAGNRLLASEKDRHEHELVTQAMKEVLRERSSELHVPSSPQLITTPTLWHLATPFEGKANSQENALTLACLLHPTPALSGFPHQAATQVIAELEPFDRELFGGIVGWCDSEGNGEWVVTIRCAKLRENQVRLFAGAGIVPASSPLGEWRETGVKLSTMLNVFGLH [P0AEJ2]”, for which the “total protein half-life in vivo” value came to 2.43 h under setting [5] and 2.54 h under setting [6].
As to “MAGWFELSKSSDNQFRFVLKAGNGETILTSELYTSKTSAEKGIASVRSNSPQEERYEKKTASNGKFYFNLKAANHQIIGSSQMYATAQSRETGIASVKANGTSQTVKDNT”, the “total protein half-life in vivo” value amounted to 5.5 ± 0.46 h under setting [2]; 6 ± 0.94 h under setting [12]; 6.31 ± 1.2 h under setting [3]; 5.48 ± 0.5 h under setting [4]; 3.2 ± 0.24 h under setting [5]; 5.83 ± 0.21 h under setting [6]. The “total protein half-life in vivo” value was found to be 11.2 ± 0.74 h under setting [7]; 5.24 ± 0.059 h under setting [8]; 9.51 ± 0.29 h under setting [9]; 5.54 ± 0.092 h under setting [10]; 11 ± 0.41 h under setting [11].
On to “MKYVDGFVVAVPADKKDAYREMAAKAAPLFKEFGALRIVECWASDVPDGKVTDFRMAVKAEENEEVVFSWIEYPSKEVRDAANQKMMSDPRMKEFGESMPFDGKRMIYGGFESIIDE [P0AAQ6]”, for which the “total protein half-life in vivo” value came out at 4.294 ± 0.022 h under setting [1]; 2.69 ± 0.41 h under setting [2]; 3.26 ± 1.4 h under setting [12]; 3.82 ± 0.1 h under setting [3]; 1.51 ± 0.073 h under setting [4]; 2.63 ± 0.71 h under setting [6]. Moreover, the “total protein half-life in vivo” value is, setting by setting: under setting [7], 2.54 ± 0.65 h; under setting [8], 2.14 h; under setting [9], 2.62 ± 0.04 h; under setting [10], 3.082 ± 0.03 h; under setting [11], 6.13 ± 0.85 h.
On to “MEYFDMRKMSVNLWRNAAGETREICTFPPAKRDFYWRASIASIAANGEFSLFPGMERIVTLLEGGEMLLESADRFNHTLKPFQPFAFAADQVVKAKLTAGQMSMDFNIMTRLDVCKAKVRIAERTFTTFGSRGGVVFVINGAWQLGDKLLTTDQGACWFDGRHTLRLLQPQGKLLFSEINWLAGHSPDQVQ”, for which the “total protein half-life in vivo” value under setting [5] was found to be 0.307 h.
Turning to “MVEDILAPGLRVVFCGINPGLSSAGTGFPFAHPANRFWKVIYQAGFTDRQLKPQEAQHLLDYRCGVTKLVDRPTVQANEVSKQELHAGGRKLIEKIEDYQPQALAILGKQAYEQGFSQRGAQWGKQTLTIGSTQIWVLPNPSGLSRVSLEKLVEAYRELDQALVVRGR [P0A9H1]”, the “total protein half-life in vivo” value under setting [1] was 5.34 ± 0.42 h; the “total protein half-life in vivo” value under setting [2] was determined as 5.22 ± 0.42 h; the “total protein half-life in vivo” value under setting [12] is 6.31 ± 1.5 h; the “total protein half-life in vivo” value under setting [3] amounted to 5.677 ± 0.045 h; the “total protein half-life in vivo” value under setting [4] is 4.88 ± 0.35 h; the “total protein half-life in vivo” value under setting [5] was determined as 3.1514 ± 0.00069 h. The “total protein half-life in vivo” value amounted to 5.79 ± 0.27 h under setting [6]; 12.1 ± 1.1 h under setting [7]; 5.18 ± 0.47 h under setting [8]; 8.94 ± 0.12 h under setting [9]; 5.74 ± 0.3 h under setting [10]; 11.7 ± 0.27 h under setting [11].
Regarding “MTTKKADYIWFNGEMVRWEDAKVHVMSHALHYGTSVFEGIRCYDSHKGPVVFRHREHMQRLHDSAKIYRFPVSQSIDELMEACRDVIRKNNLTSAYIRPLIFVGDVGMGVNPPAGYSTDVIIAAFPWGAYLGAEALEQGIDAMVSSWNRAAPNTIPTAAKAGGNYLSSLLVGSEARRHGYQEGIALDVNGYISEGAGENLFEVKDGVLFTPPFTSSALPGITRDAIIKLAKELGIEVREQVLSRESLYLADEVFMSGTAAEITPVRSVDGIQVGEGRCGPVTKRIQQAFFGLFTGETEDKWGWLDQVNQ [P0AB80]”, the “total protein half-life in vivo” value runs as follows: under setting [1], 4.699 ± 0.033 h; under setting [2], 4.25 ± 1.3 h; under setting [12], 3.48 ± 0.06 h; under setting [3], 4.94 ± 1.1 h; under setting [4], 3.75 ± 0.1 h; under setting [5], 3.24 ± 0.089 h. For the same sequence, the “total protein half-life in vivo” value reads like this: under setting [6], 5.63 ± 0.072 h; under setting [7], 10.9 ± 0.13 h; under setting [8], 3.49 ± 0.13 h; under setting [9], 5.36 ± 0.066 h; under setting [10], 5.65 ± 0.27 h; under setting [11], 10.9 ± 0.95 h.

(Values after the supplement of paper PMC11246515.)
